Assay results: ChEMBL document CHEMBL1155874, “Carbonic anhydrase activators: Activation of the human cytosolic isozyme III and membrane-associated isoform IV with amino acids and amines” (Bioorg Med Chem Lett, 2008)

Columns and labels:
[1] = substrate: N[C@@H](Cc1c[nH]cn1)C(=O)O; assay: (§1) Activity of human recombinant CA3 at 10 uM stopped-flow CO2 hydration method
[2] = substrate: N[C@H](Cc1c[nH]cn1)C(=O)O; assay: as §1
[3] = substrate: N[C@@H](Cc1c[nH]cn1)C(=O)O; assay: (§2) Activity of human recombinant truncated CA4 at 10 uM stopped-flow CO2 hydration method
[4] = substrate: N[C@H](Cc1c[nH]cn1)C(=O)O; assay: as §2

B1: Carbonic anhydrase 3 (Homo sapiens), P07451 (protein)
chain: MAKEWGYASHNGPDHWHELFPNAKGENQSPVELHTKDIRHDPSLQPWSVSYDGGSAKTILNNGKTCRVVFDDTYDRSMLRGGPLPGPYRLRQFHLHWGSSDDHGSEHTVDGVKYAAELHLVHWNPKYNTFKEALKQRDGIAVIGIFLKIGHENGEFQIFLDALDKIKTKGKEAPFTKFDPSCLFPACRDYWTYQGSFTTPPCEECIVWLLLKEPMTVSSDQMAKLRSLLSSAENEPPVPLVSNWRPPQPINNRVVRASFK
kcat [1]: 1.8 ×10⁴ /s | kcat [2]: 16.9 ×10⁴ /s

B2: Carbonic anhydrase 4 (Homo sapiens), P22748 (protein)
chain: MRMLLALLALSAARPSASAESHWCYEVQAESSNYPCLVPVKWGGNCQKDRQSPINIVTTKAKVDKKLGRFFFSGYDKKQTWTVQNNGHSVMMLLENKASISGGGLPAPYQAKQLHLHWSDLPYKGSEHSLDGEHFAMEMHIVHEKEKGTSRNVKEAQDPEDEIAVLAFLVEAGTQVNEGFQPLVEALSNIPKPEMSTTMAESSLLDLLPKEEKLRHYFRYLGSLTTPTCDEKVVWTVFREPIQLHREQILAFSQKLYYDKEQTVSMKDNVRPLQQLGQRTVIKSGAPGRPLPWALPALLGPMLACLLAGFLR
kcat [3]: 4.3 ×10⁶ /s | kcat [4]: 3.8 ×10⁶ /s
